Assay results from the supplement of paper PMC9112550, “Optimization of the antimicrobial peptide Bac7 by deep mutational scanning” (BMC Biology, 2022).

System: Escherichia coli TOP10
Test: shrunken log2 fold change of peptide-encoding DNA abundance (4.5 h post-induction vs induction); higher = less antimicrobial activity (less host growth inhibition)
Details: time post-induction: 4.5 h; library: site-saturation at positions 5, 18, 19, 20
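Note: peptides expressed intracellularly from a pBAD plasmid library in pooled LB shake-flask culture, induced with 0.3% L-arabinose, DNA abundance read by NGS, three biological replicates, DESeq2 with apeglm shrinkage.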

| Sequence | shrunken log2 fold change |
| --- | --- |
| RRIRWRPPRLPRPRPRPREPPRP | 0.35 |
| RRIRKRPPRLPRPRPRPIIIPRP | -0.104 |
| RRIRWRPPRLPRPRPRPLNKPRP | -0.397 |
| RRIRSRPPRLPRPRPRPCQIPRP | -0.231 |
| RRIRRRPPRLPRPRPRPWRLPRP | 0.289 |
| RRIRPRPPRLPRPRPRPMVAPRP | 0.208 |
| RRIRDRPPRLPRPRPRPAGGPRP | 1.11 |
| RRIRFRPPRLPRPRPRPYNNPRP | -1.15 |
| RRIRTRPPRLPRPRPRPIGNPRP | -0.0759 |
| RRIRHRPPRLPRPRPRPSQEPRP | -0.27 |
| RRIRARPPRLPRPRPRPRIWPRP | 0.164 |
| RRIRRRPPRLPRPRPRPEMHPRP | 0.705 |
| RRIRYRPPRLPRPRPRPMYFPRP | -0.48 |
| RRIRLRPPRLPRPRPRPPDGPRP | 0.0617 |
| RRIRLRPPRLPRPRPRPKEAPRP | -0.011 |
| RRIRTRPPRLPRPRPRPCLNPRP | -0.000349 |
| RRIRHRPPRLPRPRPRPILLPRP | -0.211 |
| RRIRHRPPRLPRPRPRPFTAPRP | -0.559 |
| RRIRQRPPRLPRPRPRPNRGPRP | -0.0689 |
| RRIRARPPRLPRPRPRPMHPPRP | 0.362 |
| RRIRRRPPRLPRPRPRPAVFPRP | 0.45 |
| RRIRVRPPRLPRPRPRPFPGPRP | 0.03 |
| RRIRERPPRLPRPRPRPGIWPRP | 0.139 |
| RRIRDRPPRLPRPRPRPWYIPRP | -0.0219 |
| RRIRWRPPRLPRPRPRPIQAPRP | -0.0237 |

| Sequence | shrunken log2 fold change |
| --- | --- |
| RRIRIRPPRLPRPRPRPVEDPRP | -0.158 |
| RRIRARPPRLPRPRPRPWCSPRP | -0.155 |
| RRIRHRPPRLPRPRPRPRRCPRP | 0.166 |
| RRIRIRPPRLPRPRPRPPMLPRP | -0.382 |
| RRIRKRPPRLPRPRPRPLTFPRP | 0.299 |
| RRIRARPPRLPRPRPRPAMYPRP | 0.0624 |
| RRIRERPPRLPRPRPRPCKCPRP | -0.01 |
| RRIRMRPPRLPRPRPRPCKHPRP | 0.0196 |
| RRIRFRPPRLPRPRPRPAWLPRP | 0.231 |
| RRIRGRPPRLPRPRPRPMHMPRP | 0.347 |
| RRIRCRPPRLPRPRPRPNAGPRP | -0.0355 |
| RRIRGRPPRLPRPRPRPVACPRP | 0.72 |
| RRIRSRPPRLPRPRPRPGKWPRP | -0.147 |
| RRIRPRPPRLPRPRPRPPYCPRP | -0.12 |
| RRIRWRPPRLPRPRPRPYGDPRP | -0.113 |
| RRIRRRPPRLPRPRPRPGIFPRP | -0.174 |
| RRIRHRPPRLPRPRPRPDSIPRP | -0.0212 |
| RRIRARPPRLPRPRPRPCRPPRP | -0.153 |
| RRIRCRPPRLPRPRPRPGHLPRP | -0.0824 |
| RRIRKRPPRLPRPRPRPGMLPRP | 0.542 |
| RRIRTRPPRLPRPRPRPHGHPRP | -0.136 |
| RRIRRRPPRLPRPRPRPWQMPRP | 0.0303 |
| RRIRYRPPRLPRPRPRPPTEPRP | 0.183 |
| RRIRERPPRLPRPRPRPKCSPRP | -0.0163 |
| RRIRNRPPRLPRPRPRPCTMPRP | -0.199 |

| Sequence | shrunken log2 fold change |
| --- | --- |
| RRIRMRPPRLPRPRPRPGSPPRP | 0.136 |
| RRIRPRPPRLPRPRPRPMKWPRP | 0.291 |
| RRIRIRPPRLPRPRPRPGTIPRP | -0.438 |
| RRIRNRPPRLPRPRPRPQFWPRP | 0.0339 |
| RRIRCRPPRLPRPRPRPRCRPRP | 0.285 |
| RRIRIRPPRLPRPRPRPHIYPRP | 0.13 |
| RRIRFRPPRLPRPRPRPLPHPRP | -0.0994 |
| RRIRFRPPRLPRPRPRPVWIPRP | -0.0471 |
| RRIRMRPPRLPRPRPRPYSKPRP | -0.145 |
| RRIRDRPPRLPRPRPRPREFPRP | -0.0261 |
| RRIRQRPPRLPRPRPRPTDRPRP | 0.0938 |
| RRIRGRPPRLPRPRPRPYTYPRP | -0.0842 |
| RRIRLRPPRLPRPRPRPFQVPRP | -0.0146 |
| RRIRVRPPRLPRPRPRPWDLPRP | 0.146 |
| RRIRCRPPRLPRPRPRPLIPPRP | -0.366 |
| RRIRYRPPRLPRPRPRPGVLPRP | -0.916 |
| RRIRERPPRLPRPRPRPHHVPRP | 0.00979 |
| RRIRIRPPRLPRPRPRPGFHPRP | 0.876 |
| RRIRVRPPRLPRPRPRPLEKPRP | 0.158 |
| RRIRVRPPRLPRPRPRPQATPRP | 0.271 |
| RRIRSRPPRLPRPRPRPMYAPRP | -0.29 |
| RRIRHRPPRLPRPRPRPVLMPRP | -0.381 |
| RRIRPRPPRLPRPRPRPFSQPRP | -0.231 |
| RRIRGRPPRLPRPRPRPGVGPRP | 1.11 |
| RRIRLRPPRLPRPRPRPQQNPRP | -0.241 |

| Sequence | shrunken log2 fold change |
| --- | --- |
| RRIRKRPPRLPRPRPRPRASPRP | 0.675 |
| RRIRARPPRLPRPRPRPSHWPRP | -0.175 |
| RRIRERPPRLPRPRPRPSPNPRP | -0.328 |
| RRIRERPPRLPRPRPRPNDQPRP | 0.0572 |
| RRIRNRPPRLPRPRPRPNPTPRP | -0.124 |
| RRIRIRPPRLPRPRPRPQCDPRP | -0.205 |
| RRIRERPPRLPRPRPRPFHYPRP | -0.416 |
| RRIRWRPPRLPRPRPRPAQYPRP | 0.122 |
| RRIRWRPPRLPRPRPRPNPVPRP | -0.266 |
| RRIRARPPRLPRPRPRPKTIPRP | 0.038 |
| RRIRMRPPRLPRPRPRPCFMPRP | -0.136 |
| RRIRVRPPRLPRPRPRPADKPRP | -0.0503 |
| RRIRWRPPRLPRPRPRPAQLPRP | 1.63 |
| RRIRVRPPRLPRPRPRPHYVPRP | 0.0323 |
| RRIRMRPPRLPRPRPRPGDVPRP | 0.333 |
| RRIRCRPPRLPRPRPRPHMLPRP | -0.431 |
| RRIRNRPPRLPRPRPRPCGCPRP | 0.0239 |
| RRIRQRPPRLPRPRPRPSKWPRP | -0.351 |
| RRIRLRPPRLPRPRPRPMTAPRP | 0.0114 |
| RRIRARPPRLPRPRPRPCSMPRP | 0.00269 |
| RRIRRRPPRLPRPRPRPNKPPRP | 0.101 |
| RRIRRRPPRLPRPRPRPPATPRP | 0.958 |
| RRIRLRPPRLPRPRPRPMYAPRP | -0.248 |
| RRIRMRPPRLPRPRPRPMTRPRP | 0.118 |
| RRIRNRPPRLPRPRPRPHSLPRP | -0.117 |

| Sequence | shrunken log2 fold change |
| --- | --- |
| RRIRARPPRLPRPRPRPVYSPRP | -0.312 |
| RRIRMRPPRLPRPRPRPCSGPRP | -0.146 |
| RRIRFRPPRLPRPRPRPGFVPRP | 0.126 |
| RRIRPRPPRLPRPRPRPARLPRP | 0.00523 |
| RRIRQRPPRLPRPRPRPWWRPRP | 0.0847 |
| RRIRWRPPRLPRPRPRPAVDPRP | 0.174 |
| RRIRDRPPRLPRPRPRPKFIPRP | -0.14 |
| RRIRQRPPRLPRPRPRPGAAPRP | 0.553 |
| RRIRLRPPRLPRPRPRPHYAPRP | -0.133 |
| RRIRARPPRLPRPRPRPYHLPRP | -0.0107 |
| RRIRKRPPRLPRPRPRPPQIPRP | 0.661 |
| RRIRARPPRLPRPRPRPARSPRP | 0.31 |
| RRIRARPPRLPRPRPRPRTAPRP | 0.844 |
| RRIRCRPPRLPRPRPRPWSVPRP | -0.34 |
| RRIRVRPPRLPRPRPRPKDIPRP | -0.642 |
| RRIRCRPPRLPRPRPRPSFYPRP | -0.793 |
| RRIRFRPPRLPRPRPRPEFLPRP | 0.0354 |
| RRIRWRPPRLPRPRPRPHLGPRP | 0.14 |
| RRIRPRPPRLPRPRPRPACIPRP | -0.25 |
| RRIRSRPPRLPRPRPRPQWPPRP | 0.121 |
| RRIRERPPRLPRPRPRPTLKPRP | -0.197 |
| RRIRKRPPRLPRPRPRPMAPPRP | 0.0811 |
| RRIRCRPPRLPRPRPRPDQHPRP | 0.0432 |
| RRIRMRPPRLPRPRPRPGCEPRP | 1.87 |
| RRIRVRPPRLPRPRPRPCGPPRP | -0.0876 |

| Sequence | shrunken log2 fold change |
| --- | --- |
| RRIRYRPPRLPRPRPRPGRAPRP | 0.17 |
| RRIRCRPPRLPRPRPRPQKQPRP | 0.0183 |
| RRIRMRPPRLPRPRPRPGPHPRP | 0.256 |
| RRIRTRPPRLPRPRPRPRLKPRP | 0.0991 |
| RRIRKRPPRLPRPRPRPRHCPRP | 0.0472 |
| RRIRNRPPRLPRPRPRPHNQPRP | -0.7 |
| RRIRDRPPRLPRPRPRPRDEPRP | 0.12 |
| RRIRARPPRLPRPRPRPYNQPRP | -0.306 |
| RRIRFRPPRLPRPRPRPAICPRP | 0.00851 |
| RRIRERPPRLPRPRPRPEVYPRP | -0.0514 |
| RRIRARPPRLPRPRPRPHVAPRP | 0.114 |
| RRIRNRPPRLPRPRPRPRHRPRP | 0.202 |
| RRIRDRPPRLPRPRPRPLRVPRP | 0.679 |
| RRIRRRPPRLPRPRPRPGPMPRP | 0.353 |
| RRIRPRPPRLPRPRPRPMYMPRP | -0.0346 |
| RRIRTRPPRLPRPRPRPDWHPRP | -0.053 |
| RRIRWRPPRLPRPRPRPDVTPRP | 0.0084 |
| RRIRCRPPRLPRPRPRPLVVPRP | -0.347 |
| RRIRHRPPRLPRPRPRPHNPPRP | -0.216 |
| RRIRCRPPRLPRPRPRPYADPRP | -0.037 |
| RRIRIRPPRLPRPRPRPDKCPRP | -0.0188 |
| RRIRRRPPRLPRPRPRPCHDPRP | -0.105 |
| RRIRGRPPRLPRPRPRPAWSPRP | 0.929 |
| RRIRFRPPRLPRPRPRPNFIPRP | -0.308 |
| RRIRMRPPRLPRPRPRPIHFPRP | -0.0141 |
